# From patent US20250313612A1 (Adimab, published 2025)
# Tests used:
# [1] = molecular target: RSV F protein of recombinant mKate-RSV, subtype A (strain A2) (Respiratory syncytial virus subtype A …, UniProt P03420 26-574); test: cell-based or functional assay
# [2] = molecular target: RSV F protein of recombinant mKate-RSV, subtype B (18537) (Respiratory syncytial virus subtype B …, UniProt P13843 26-574); test: cell-based or functional assay
# [3] = molecular target: T1, RSV F ectodomain stabilized in the postfusion conformation (F ΔFP), subtype B (Respiratory syncytial virus subtype B, UniProt P13843 26-109; P13843 147-524); test: BLI, IgG on AHQ sensor, 100 nM antigen
# T1 construct: extracellular domain; trimer; also called Postfusion subtype B; postF subtype B
# [4] = molecular target: T2, RSV F ectodomain stabilized in the postfusion conformation (F ΔFP), subtype A (Respiratory syncytial virus subtype A, UniProt P03420 26-109; P03420 147-524); test: BLI, IgG on AHQ sensor, 100 nM antigen
# T2 construct: extracellular domain; trimer; furin-cleaved; also called Postfusion subtype A
Binder,Neut IC50 subtype A [1],Neut IC50 subtype B [2],Kd [3],Kd [4]
"ADI-14483 (antibody, V domains shown, full-length IgG (yeast-expressed); also called Antibody Number 44; Ab# 44) VH: QVQLVQSGGRLVKPGGSLRLSCGMSGFGFSSYRMNWVRQAPGKGLEWISSISASSSYTDYANSVKGRFTISRDGANLFLQMNSLRVEDTAVYYCARDWGGHSIFGAVQDLWGQGTLVTVSS VL: QSVLTQPPSVSGAPGQRVTISCSGSSSNIGAGYDVHWYQQLPGTAPKLLIYGNTNRPSGVPDRFSGSKSGTSASLAITGLQAEDEADYYCQSYDRSLSQVFGAGTKVTVL",0.031 µg/mL,0.03 µg/mL,20 nM,–
"ADI-14487 (antibody, V domains shown) VH: QVQLVQSGAEVKKPGASVRVSCKASGYTFSSYYIHWVRQAPGQGPEWLGWINPKSGDTIYSYKFQGRVTLTRETSITTAYMELTSLRSDDTAVYYCARVTWQWLVLGGFDYWGQGTLVTVSS VL: DIVLTQSPLSLPVTPGEPASISCRSSLSLLHSNGDNYLDWYLQKPGQSPQLLIYLGSNRASGVPDRFSGSGSGTDFTLKISRVEAEDVGVYYCMQALHTPLTFGGGTKLEIK",> 10 µg/mL,> 10 µg/mL,–,–
"ADI-14522 (antibody, V domains shown, full-length IgG (yeast-expressed); also called Antibody Number 82; Ab# 82) VH: EVQLVESGAEVKKPGDSVKVSCRASGYSFTGPFLHWVRQAPGQRLEHMGWINPRSGETKYAQSFLGRVTMTRDTSIRSATLELSSLRSDDTAVYYCARDLYSSGWLDNWGQGTLVTVSS VL: ETTLTQSPATLSVSPGERATLSCRASQGLSSNLAWYQHKPGQAPRLLVYGVATRATGVPARFSGSGSGTEFTLTISSLQSDDFALYYCHQYNDWPYTFGQGTKLEIK",3.53 µg/mL,7.29 µg/mL,1.06 nM,–
"ADI-14480 (antibody, V domains shown) VH: QVQLVQSGAEVKKPGSSMSISCRASGGSFNNQAIHWIRQAPGEGLEWMGNIIPNFGSQNYAPEFVGRVSFNADASAGTAYMDLSDLTSQDTAVYYCATAGWFGELVRFDSWGQGTLVTVSS VL: DIVMTQSPATLSVSPGGRATLSCRASETITTNLAWYQQKPGQAPRLLIYGASTRATGIPARFSGSGSGTEFTLTINSLQSEDFAVYYCQQYNNWPPLTFGGGTKLEIK",> 10 µg/mL,2.76 µg/mL,–,–
"ADI-14495 (antibody, V domains shown, full-length IgG (yeast-expressed); also called Antibody Number 56; Ab# 56) VH: QITLKESGPTLVKPTQTLTLTCSFSGFSLTTRGVGVGWVRQPPGKALECLGFVYWDDDKRYSPSLRSRLTISEDTSKNQVVLTMTNMDPLDTATYYCVHSDLYDRGGYYLFYFDYWGQGTLVTVSS VL: DIVLTQSPSSLSASVGDRVTITCRASQPIASYLNWYQHKPGKAPKLLIYAASSLQSGVSSTFSGRGSGTDFTLTITALQPEDFAIYYCQQSYTFPYTFGQGTKVDIK",0.864 µg/mL,17.4 µg/mL,1.71 nM,0.367 nM
"ADI-14438 (antibody, V domains shown, full-length IgG (yeast-expressed); also called Antibody Number 1; Ab# 1) VH: QVQLVQSGAEVKKPGASVKVSCRASGFVFTSYDINWVRQAPGQGLEWMGRMNAHTGQVTYAQKFQDKVSMTRDVSITTAYLELSRLASEDTAVYYCARPDINWGQDAFDVWGQGTMVTVSS VL: DIRMTQSPSTLSASIGARVTITCRASQNIGNFLAWYQQKPGKAPKLLIYKASTLDPGVPSRFSGSGSGTEFTLTITSLQPDDFATFYCQQYKSDPTFGQGTKVEIK",0.289 µg/mL,0.237 µg/mL,8.29 nM,11.8 nM
"ADI-14490 (antibody, V domains shown) VH: QVQLVQSGGGVVQPGRSLRLSCAASGFTFSNYGMHWVRQAPGKGLEWVAVIWYDGSNKYYADSVKGRFTISRDNSKNTVYLQMNSLRADDTAVYYCARDAIFGSGPNWFDPWGQGTLVTVSS VL: QSVLTQPPSVSGAPGQRVTISCTGSSSNIGAGYDVHWYQQLPGTAPKLLIYGSSNRPSGVPDRFSGSKSGTSASLAITGLQAEDEADYYCQSYESSLRGWVFGGGTKVTVL",1.02 µg/mL,0.113 µg/mL,–,–
"ADI-14443 (antibody, V domains shown, full-length IgG (yeast-expressed); also called Antibody Number 6; Ab# 6) VH: QVQLVQSGTEVKKPGSSVKVSCKASGGTFGSYAVIWVRQAPGQGLEWMGHFIPVFATTNKAQKFQGRLTLSTDESTGTVYMELSSLRSEDTAVYFCATKRYCSDPSCHGLWYFDLWGRGTLVTVSS VL: DIQLTQSPLSLPVTPGEPASISCRSSQSLLDSDDGNTYLDWYLQKPGQSPQVLIYMLSYRASGVPDRFSGSGSGTDFTLEISRVEAEDVGVYYCMQRVEFPYTFGQGTKLEIK",0.047 µg/mL,0.063 µg/mL,0.137 nM,0.19 nM
"ADI-14491 (antibody, V domains shown, full-length IgG (yeast-expressed); also called Antibody Number 52; Ab# 52) VH: EVQLVESGGGVVQPGRSLRLSCAASGFTFSDHAMYWVRQAPGKGLEWVALISFDGRNIYYADSVKGRFTISRDNSKNTLYLQMNSLRAEDTAVYYCARDQWLVPDYWGQGTLVTVSS VL: QSVLTQPASVSGSPGQSITISCTGTSSDVGGYNYVSWYQQHPGNAPKLMIYEVSKRPSGVPDRFSGFKSGNTASLTVSGLQAEDEADYYCSSYAGSNSVFGTGTKVTVL",0.105 µg/mL,0.102 µg/mL,0.158 nM,0.238 nM
"ADI-14494 (antibody, V domains shown, full-length IgG (yeast-expressed); also called Antibody Number 55; Ab# 55) VH: EVQLVESGGGVVQPGRSLRLSCAASGFTFSDHAMYWVRQAPGKGLEWVALISFDGRNIYYADSVKGRFTISRDNSKNTLYLQMNSLRAEDTAVYYCARDQWLVPDYWGQGTLVTVSS VL: QSALTQPASVSGSPGQSITISCTGTSSDVGGYNYVSWYQQHPGNAPKLMIYEVSKRPSGVPDRFSGFKSGNTASLTVSGLQAEDEADYYCSSYAGSNSVFGTGTKVTVL",0.084 µg/mL,0.089 µg/mL,0.155 nM,0.24 nM
"ADI-14461 (antibody, V domains shown, full-length IgG (yeast-expressed); also called Antibody Number 24; Ab# 24) VH: EVQLVESGGGVVQPGRSLRLSCAASGFTFSDHAMYWVRQAPGKGLEWVALISFDGRNIYYADSVKGRFTISRDNSKNTLYLQMNSLRAEDTAVYYCARDQWLVPDYWGQGTLVTVSS VL: LPVLTQPASVSGSPGQSITISCTGTSSDVGGYNYVSWYQQHPGNAPKLMIYEVSKRPSGVPDRFSGFKSGNTASLTVSGLQAEDEADYYCSSYAGSNSVFGTGTKLTVL",0.129 µg/mL,0.152 µg/mL,0.156 nM,0.231 nM
"ADI-14525 (antibody, V domains shown, full-length IgG (yeast-expressed); also called Antibody Number 85; Ab# 85) VH: EVQLLESGGGVVQPGRSLRLSCTASGFTFSDHAMYWVRQAPGKGLEWVALISFDGRNIYYADSVKGRFTISRDNSKNTLYLQMNSLRAEDTAVYYCARDQWLVPDYWGQGTLVTVSS VL: QSVLIQPASVSGSPGQSITISCTGTSSDVGGYNYVSWYQQHPGNAPKLMIYEVSKRPSGVPDRFSGFKSGNTASLTVSGLQAEDEADYYCSSYAGSNSVFGTGTQLTVL",0.135 µg/mL,0.108 µg/mL,0.149 nM,0.23 nM
"ADI-14488 (antibody, V domains shown) VH: EVQLVESGGGLVQPGGSLKLSCTSSGLAFSGSAIHWVRQASGKGLEWVGRIRSKPNSYATEYAASVKGRFTISRDDSQNTAYLQMNSLKAEDTALYYCTLGYCSGDSCSSLRDYWGQGTLVTVSS VL: QSALIQPASVSGSPGQSITISCTGTSSDVGGYNYVSWYQQHPGKAPKLMIYDVSNRPSGVSNRFSGSKSGNTASLTISGLQAEDEADYYCSSYTSSSTLVFGGGTKVTVL",> 10 µg/mL,> 10 µg/mL,–,–
"ADI-14482 (antibody, V domains shown) VH: QVQLQQWGAGLVKPSETLSLTCAVSGGSFRGYQWNWFRQPPGKGLEWIGEINHGEYTHYNASLKSRVSLSIDTSKNQFSLNLTSVTAADTAMYFCARASSGTYNFEYWFDPWGQGTLVTVSS VL: SYVLTQPPSVSVAPGKTAWLTCGGNNIGNKRVHWYQQKPGQAPVLVVYDDYGRPSGTSERVSGSNSGNTATLTISRVEAGDEAEYYCQVWDDPSDHAVFGGGTQLTVL",0.024 µg/mL,0.031 µg/mL,–,–
"ADI-14492 (antibody, V domains shown, full-length IgG (yeast-expressed); also called Antibody Number 53; Ab# 53) VH: EVQLVESGGGLVRPGGSLGLSCSASGFIFSNAWMTWVRQAPGKGLEWVGHIKSKVNGGTTAYGAPVKGRFTISRDDSRNTLFLQMNSLKTEDTGVYYCTTGPPYQYFDDSGYSVVDYWGQGTLVTVSS VL: QSVVTQPPSASGTPGQRVTISCSGSDSNIGTDYFYWYQQLPGSAPKLLIYGSNQRPSGVPDRFSGSQSGSAASLAISGLRSEDDADYYCAAWDDSLGGPVFGGGTKVTVL",0.204 µg/mL,0.681 µg/mL,0.111 nM,0.166 nM
"ADI-14503 (antibody, V domains shown, full-length IgG (yeast-expressed); also called Antibody Number 64; Ab# 64) VH: QVQLVQSGGGLVKPGGSLRLSCAASGFSLTNYRMNWVRQAPGKGLEWVSSLKDSSSYIYYADSVKGRFTVSRDDAKNSFFLQMTNVRAEDTAVYYCAREGSDTEYWRLTPPMDVWGNGTTVTVSS VL: QSVLTQPPSVSVAPRQTARITCGEHNIGTKSVHWYQQKPGQAPVLVIYDDSDRPSGIPARFSGSNSGNTATLTISWVEAGDEAVYYCQVWDSGDHPWLFGGGTQLTVL",0.016 µg/mL,0.026 µg/mL,–,26.1 nM
"ADI-14473 (antibody, V domains shown, full-length IgG (yeast-expressed); also called Antibody Number 35; Ab# 35) VH: QVQLVQSGAEVKKPGEPLRISCKGSGYTFTSYWISWVRQMPGTGLEWMGRIDPSDSYTYSSPSFQGHVTISVDKSISTAYLQWSSLKASDTAIYYCARHKENYDFWDFWGQGTLVTVSS VL: ETTLTQSPDSLAVSLGERATINCKSSQTIFFNSNNKISLAWYQQKPGQPPKLLISWASTRESGVPDRFSGSGSGTDFTLTISSLQPEDVAVYFCQQYYSSAFFGPGTRLEIK",–,–,0.151 nM,0.224 nM
"ADI-14486 (antibody, V domains shown, full-length IgG (yeast-expressed); also called Antibody Number 47; Ab# 47) VH: QVQLQESGPGLVKPSETLSLTCTVSGGSINNYFWSWIRQPPGKGLEWLGYIYNSGSTYYNPSLNSRVTISLQKSKNQFSLHLTSMTAADTAVYFCARHPSVIYGTFGANGGPNWFDPWGQGTLVTVSS VL: QSVLTQPASVSGSPGQSITISCTGTSSDVGGYNYVSWYQQHPGKAPKLMIFDVTYRPSGISNRFSGSKSGNTASLTISGLHSEDEADYYCSSYTGSNTVIFGGGTKLTVL",–,–,0.636 nM,0.529 nM
